B1: target 1 C2U,U11G (mixed)
RNA 1: CACCCGUGCAAAAAUGCAGGGGUCUAAAACUGAGCGGAUAACCUCUCUAUGG
RNA 2: GGGAAUGGAUCCACAUCUACGAAUUCGUACCAUAGAGAGGGUAUCCGCUUACCGAGAUCGGAAGAGCACACGU
B2: target 1 insG 3' of 14,insA 3' of 7 (mixed)
RNA 1: B1 RNA 1
RNA 2: GGGAAUGGAUCCACAUCUACGAAUUCGUACCAUAGAGAGGGUUAUCACGCUCACCGAGAUCGGAAGAGCACACGU
B3: target 1 MT 5'PFS GGA 3'PFS AAU (mixed)
RNA 1: B1 RNA 1
RNA 2: B1 RNA 2 with U28G, G41U, U50C, C52A, C53A, G54U
B4: target 1 MT 5'PFS UUA 3'PFS UCA (mixed)
RNA 1: B1 RNA 1
RNA 2: B1 RNA 2 with G27U, G41U, U50C, C52U, G54A
B5: target 1 C2U,A9G (mixed)
RNA 1: B1 RNA 1
RNA 2: B1 RNA 2 with G41U, A43G
B6: target 1 MT 5'PFS GUC 3'PFS UGA (mixed)
RNA 1: B1 RNA 1
RNA 2: B1 RNA 2 with A29C, G41U, U50C, C52U, C53G, G54A
B7: target 1 MT 5'PFS UUA 3'PFS UCG (mixed)
RNA 1: B1 RNA 1
RNA 2: B1 RNA 2 with G27U, G41U, U50C, C52U
B8: target 1 MT 5'PFS GUC 3'PFS UGG (mixed)
RNA 1: B1 RNA 1
RNA 2: B1 RNA 2 with A29C, G41U, U50C, C52U, C53G
B9: target 1 MT 5'PFS GUC 3'PFS UGU (mixed)
RNA 1: B1 RNA 1
RNA 2: B1 RNA 2 with A29C, G41U, U50C, C52U, C53G, G54U
B10: target 1 insU 3' of 22,insC 3' of 12 (mixed)
RNA 1: B1 RNA 1
RNA 2: GGGAAUGGAUCCACAUCUACGAAUUCGUACUCAUAGAGAGGCUUAUCCGCUCACCGAGAUCGGAAGAGCACACGU
B11: target 1 MT 5'PFS GGA 3'PFS CCG (mixed)
RNA 1: B1 RNA 1
RNA 2: B1 RNA 2 with U28G, G41U, U50C
B12: target 1 C2A,A14C (mixed)
RNA 1: B1 RNA 1
RNA 2: B1 RNA 2 with A38C, G41U, U50A
B13: target 1 MT 5'PFS AAC 3'PFS AGA (mixed)
RNA 1: B1 RNA 1
RNA 2: B1 RNA 2 with G27A, U28A, A29C, G41U, U50C, C52A, C53G, G54A
B14: target 1 MT 5'PFS UGU 3'PFS UAA (mixed)
RNA 1: B1 RNA 1
RNA 2: B1 RNA 2 with G27U, U28G, A29U, G41U, U50C, C52U, C53A, G54A
B15: target 1 MT 5'PFS UAA 3'PFS UUG (mixed)
RNA 1: B1 RNA 1
RNA 2: B1 RNA 2 with G27U, U28A, G41U, U50C, C52U, C53U
B16: target 1 MT 5'PFS AAA 3'PFS CGA (mixed)
RNA 1: B1 RNA 1
RNA 2: B1 RNA 2 with G27A, U28A, G41U, U50C, C53G, G54A
B17: target 1 MT 5'PFS GGA 3'PFS AAA (mixed)
RNA 1: B1 RNA 1
RNA 2: B1 RNA 2 with U28G, G41U, U50C, C52A, C53A, G54A
B18: target 1 MT 5'PFS UUG 3'PFS UCU (mixed)
RNA 1: B1 RNA 1
RNA 2: B1 RNA 2 with G27U, A29G, G41U, U50C, C52U, G54U
B19: target 1 MT 5'PFS GAC 3'PFS UGA (mixed)
RNA 1: B1 RNA 1
RNA 2: B1 RNA 2 with U28A, A29C, G41U, U50C, C52U, C53G, G54A
B20: target 1 MT 5'PFS GGC 3'PFS CAG (mixed)
RNA 1: B1 RNA 1
RNA 2: B1 RNA 2 with U28G, A29C, G41U, U50C, C53A
B21: target 1 MT 5'PFS CUC 3'PFS CAU (mixed)
RNA 1: B1 RNA 1
RNA 2: B1 RNA 2 with G27C, A29C, G41U, U50C, C53A, G54U
B22: target 1 MT 5'PFS AAC 3'PFS AGG (mixed)
RNA 1: B1 RNA 1
RNA 2: B1 RNA 2 with G27A, U28A, A29C, G41U, U50C, C52A, C53G
B23: target 1 MT 5'PFS GGG 3'PFS GUG (mixed)
RNA 1: B1 RNA 1
RNA 2: B1 RNA 2 with U28G, A29G, G41U, U50C, C52G, C53U
B24: target 1 MT 5'PFS GGA 3'PFS AAG (mixed)
RNA 1: B1 RNA 1
RNA 2: B1 RNA 2 with U28G, G41U, U50C, C52A, C53A
B25: target 1 MT 5'PFS CAU 3'PFS UUA (mixed)
RNA 1: B1 RNA 1
RNA 2: B1 RNA 2 with G27C, U28A, A29U, G41U, U50C, C52U, C53U, G54A
B26: target 1 MT 5'PFS GGA 3'PFS CCU (mixed)
RNA 1: B1 RNA 1
RNA 2: B1 RNA 2 with U28G, G41U, U50C, G54U
B27: target 1 MT 5'PFS UAA 3'PFS UUU (mixed)
RNA 1: B1 RNA 1
RNA 2: B1 RNA 2 with G27U, U28A, G41U, U50C, C52U, C53U, G54U
B28: target 1 MT 5'PFS GUC 3'PFS UGC (mixed)
RNA 1: B1 RNA 1
RNA 2: B1 RNA 2 with A29C, G41U, U50C, C52U, C53G, G54C
B29: target 1 MT 5'PFS UUA 3'PFS ACC (mixed)
RNA 1: B1 RNA 1
RNA 2: B1 RNA 2 with G27U, G41U, U50C, C52A, G54C
B30: target 1 MT 5'PFS UUA 3'PFS ACA (mixed)
RNA 1: B1 RNA 1
RNA 2: B1 RNA 2 with G27U, G41U, U50C, C52A, G54A
B31: target 1 MT 5'PFS AAA 3'PFS CGU (mixed)
RNA 1: B1 RNA 1
RNA 2: B1 RNA 2 with G27A, U28A, G41U, U50C, C53G, G54U
B32: target 1 MT 5'PFS UUG 3'PFS UCG (mixed)
RNA 1: B1 RNA 1
RNA 2: B1 RNA 2 with G27U, A29G, G41U, U50C, C52U
B33: target 1 MT 5'PFS GGA 3'PFS AAC (mixed)
RNA 1: B1 RNA 1
RNA 2: B1 RNA 2 with U28G, G41U, U50C, C52A, C53A, G54C
B34: target 1 MT 5'PFS UCA 3'PFS AUC (mixed)
RNA 1: B1 RNA 1
RNA 2: B1 RNA 2 with G27U, U28C, G41U, U50C, C52A, C53U, G54C
B35: target 1 MT 5'PFS CAG 3'PFS CUG (mixed)
RNA 1: B1 RNA 1
RNA 2: B1 RNA 2 with G27C, U28A, A29G, G41U, U50C, C53U
B36: target 1 MT 5'PFS UUA 3'PFS ACG (mixed)
RNA 1: B1 RNA 1
RNA 2: B1 RNA 2 with G27U, G41U, U50C, C52A
B37: target 1 MT 5'PFS GAC 3'PFS UGU (mixed)
RNA 1: B1 RNA 1
RNA 2: B1 RNA 2 with U28A, A29C, G41U, U50C, C52U, C53G, G54U

Residue numbers refer to the chain shown, from its start. Names may count otherwise.

In this data set the target is T1, EsCas13d, nuclease-dead (Eubacterium siraeum, UniProt B0MS50, R295A;H300A;R849A;H854A).
T1 sequence: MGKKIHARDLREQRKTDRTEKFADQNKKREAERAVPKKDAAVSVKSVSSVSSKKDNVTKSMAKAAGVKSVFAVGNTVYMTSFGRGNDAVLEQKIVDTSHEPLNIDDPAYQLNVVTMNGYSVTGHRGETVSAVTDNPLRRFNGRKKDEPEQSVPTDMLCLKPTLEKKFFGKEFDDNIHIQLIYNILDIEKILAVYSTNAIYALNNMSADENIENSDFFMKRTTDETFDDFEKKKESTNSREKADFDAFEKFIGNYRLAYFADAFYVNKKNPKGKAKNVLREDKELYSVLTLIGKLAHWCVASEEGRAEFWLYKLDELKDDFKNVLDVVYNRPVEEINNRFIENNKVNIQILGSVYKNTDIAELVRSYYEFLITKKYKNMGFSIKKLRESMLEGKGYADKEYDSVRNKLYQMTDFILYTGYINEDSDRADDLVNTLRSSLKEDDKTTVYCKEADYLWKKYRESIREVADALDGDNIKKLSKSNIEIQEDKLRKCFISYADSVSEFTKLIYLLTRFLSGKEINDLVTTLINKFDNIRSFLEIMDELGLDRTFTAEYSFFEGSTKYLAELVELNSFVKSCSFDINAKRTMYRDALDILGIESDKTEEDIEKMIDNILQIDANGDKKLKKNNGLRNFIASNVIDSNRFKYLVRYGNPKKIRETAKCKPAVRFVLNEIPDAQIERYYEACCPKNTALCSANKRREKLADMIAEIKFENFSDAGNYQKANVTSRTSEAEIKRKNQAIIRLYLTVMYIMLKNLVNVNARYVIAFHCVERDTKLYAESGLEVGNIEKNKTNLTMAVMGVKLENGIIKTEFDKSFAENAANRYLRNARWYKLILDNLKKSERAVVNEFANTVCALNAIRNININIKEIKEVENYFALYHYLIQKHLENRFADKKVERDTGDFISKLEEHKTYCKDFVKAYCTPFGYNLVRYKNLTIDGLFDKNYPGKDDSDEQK
The data set is described as follows: crRNA (strand 1, pre-loaded); Mg2+; 40 mM Tris-HCl pH 7.5, 150 mM NaCl, 6 mM MgCl2, 1 mM DTT, 0.1% Tween-20, 0.2 mg/ml BSA; 25 C; 10 min per concentration, then washed. To be noted: tags: His6-TwinStrep-SUMO cleaved; N-terminal SNAP kept (SNAP-Surface 488); label: 3' end held by stalled T7 RNA polymerase.
Take B1: the Kd turned out to be 18.4 ± 1 nM.
In the case of B2 it was 6.2 ± 0.5 nM.
As for B3, the figure is 21 ± 5.5 nM.
Molecule B4 had a Kd of 25 ± 6.5 nM.
As for B5, the figure is 15.4 ± 1.4 nM; as for B6, 14.7 ± 3.4 nM; as for B7, 13.6 ± 2.85 nM.
In turn, B8 yielded a Kd of 65 ± 15.5 nM.
In the case of B9, the Kd came to 21.5 ± 5 nM.
The molecule B10 had a Kd of 92 ± 34 nM.
As for B11, the figure is 28.5 ± 7.5 nM; as for B12, 48.7 ± 3.1 nM.
In the case of B13 it was approximately 27 nM; in that of B14, 56 ± 17 nM.
In the case of B15 it was 16.8 ± 2.95 nM; in that of B16, 30 ± 14.5 nM; in that of B17, 41 ± 10 nM.
Molecule B18 came in with a Kd of 20.9 ± 3.9 nM. Compared with the last molecule, the Kd is about 2-fold lower.
In the case of B19 it was approximately 27.2 nM; in that of B20, 25.5 ± 8.5 nM; in that of B21, approximately 55 nM.
B22 returned a Kd of 59 ± 19 nM.
In the case of B23 it was 7.25 ± 0.95 nM; in that of B24, 24.1 ± 3.95 nM; in that of B25, approximately 70 nM.
B26 came in with a dissociation constant (Kd) of 10.3 ± 2.85 nM.
In the case of B27, the Kd came out at 49 ± 14 nM. Against the preceding molecule, the Kd is about 4.8-fold higher.
In the case of B28 it was 13.2 ± 2.95 nM.
B29 registered a Kd of approximately 22.5 nM.
In turn, B30 registered a Kd of 37 ± 13 nM.
In the case of B31 it was 35 ± 16 nM; in that of B32, 58.5 ± 22.5 nM.
In turn, B33 had a Kd of 24.5 ± 5 nM.
As to B34, the Kd is approximately 11 nM.
In the case of B35 it was 19 ± 7.5 nM; in that of B36, 21.8 ± 4.7 nM.
As for B37, the figure is 41.5 ± 12.5 nM.

Broadly, the Kd is the constant that tells how readily two partners part at equilibrium. A higher Kd goes with lower affinity.

The record behind these values is paper PMC10786891, “Massively parallel profiling of RNA-targeting CRISPR-Cas13d”.
